ChEMBL document CHEMBL3734689, “Enzyme kinetics and inhibition of histone acetyltransferase KAT8” (Eur J Med Chem, 2015)

Key:
Settings in all cases: Homo sapiens
[1] = compound: CCCCCCCCCCCCCCCc1cccc(O)c1C(=O)O; assay: Inhibition of recombinant N-terminal His6-tagged KAT8 (unknown origin) expressed in Escherichia Coli BL21 DE3 cells assessed as Vmax for histone H4 peptide at 240 uM
[2] = compound: CCCCCCCCCCCCCCCc1cccc(O)c1C(=O)O; assay: Uncompetitive inhibition of recombinant N-terminal His6-tagged KAT8 (unknown origin) expressed in Escherichia Coli BL21 DE3 cells assessed as Vmax for acetyl coenzyme A at 240 uM
[3] = compound: CCCCCCCCCCCCCCCc1cccc(O)c1C(=O)O; assay: Inhibition of recombinant N-terminal His6-tagged KAT8 (unknown origin) expressed in Escherichia Coli BL21 DE3 cells assessed as Vmax for histone H4 peptide at 80 uM
[4] = compound: CCCCCCCCCCCCCCCc1cccc(O)c1C(=O)O; assay: Uncompetitive inhibition of recombinant N-terminal His6-tagged KAT8 (unknown origin) expressed in Escherichia Coli BL21 DE3 cells assessed as Km for acetyl coenzyme A at 160 uM
[5] = compound: CCCCCCCCCCCCCCCc1cccc(O)c1C(=O)O; assay: Uncompetitive inhibition of recombinant N-terminal His6-tagged KAT8 (unknown origin) expressed in Escherichia Coli BL21 DE3 cells assessed as Km for acetyl coenzyme A at 240 uM
[6] = compound: CCCCCCCCCCCCCCCc1cccc(O)c1C(=O)O; assay: Uncompetitive inhibition of recombinant N-terminal His6-tagged KAT8 (unknown origin) expressed in Escherichia Coli BL21 DE3 cells assessed as Vmax for acetyl coenzyme A at 80 uM
[7] = compound: CCCCCCCCCCCCCCCc1cccc(O)c1C(=O)O; assay: Uncompetitive inhibition of recombinant N-terminal His6-tagged KAT8 (unknown origin) expressed in Escherichia Coli BL21 DE3 cells assessed as Km for acetyl coenzyme A at 80 uM
[8] = compound: CCCCCCCCCCCCCCCc1cccc(O)c1C(=O)O; assay: Inhibition of recombinant N-terminal His6-tagged KAT8 (unknown origin) expressed in Escherichia Coli BL21 DE3 cells assessed as Vmax for histone H4 peptide at 160 uM
[9] = compound: CCCCCCCCCCCCCCCc1cccc(O)c1C(=O)O; assay: Uncompetitive inhibition of recombinant N-terminal His6-tagged KAT8 (unknown origin) expressed in Escherichia Coli BL21 DE3 cells assessed as Vmax for acetyl coenzyme A at 160 uM

B1: Histone acetyltransferase KAT8 (Homo sapiens), Q9H7Z6 (protein)
chain: MAAQGAAAAVAAGTSGVAGEGEPGPGENAAAEGTAPSPGRVSPPTPARGEPEVTVEIGETYLCRRPDSTWHSAEVIQSRVNDQEGREEFYVHYVGFNRRLDEWVDKNRLALTKTVKDAVQKNSEKYLSELAEQPERKITRNQKRKHDEINHVQKTYAEMDPTTAALEKEHEAITKVKYVDKIHIGNYEIDAWYFSPFPEDYGKQPKLWLCEYCLKYMKYEKSYRFHLGQCQWRQPPGKEIYRKSNISVYEVDGKDHKIYCQNLCLLAKLFLDHKTLYFDVEPFVFYILTEVDRQGAHIVGYFSKEKESPDGNNVACILTLPPYQRRGYGKFLIAFSYELSKLESTVGSPEKPLSDLGKLSYRSYWSWVLLEILRDFRGTLSIKDLSQMTSITQNDIISTLQSLNMVKYWKGQHVICVTPKLVEEHLKSAQYKKPPITVDSVCLKWAPPKHKQVKLSKK
Vmax [1]: 12 pmol/min | Vmax [2]: 6.1 pmol/min | Vmax [3]: 12 pmol/min | Km [4]: 1.9 µM | Km [5]: 1 µM | Vmax [6]: 12 pmol/min | Km [7]: 2.4 µM | Vmax [8]: 12 pmol/min | Vmax [9]: 9.2 pmol/min
